Target: protein phosphatase 1 catalytic subunit, γ-isoform (PPP1CCγ) (human, UniProt P36873 1-323)
Assay: cell-based or functional assay

Chain of protein phosphatase 1 catalytic subunit, γ-isoform (PPP1CCγ) (P36873 whole entry, canonical isoform): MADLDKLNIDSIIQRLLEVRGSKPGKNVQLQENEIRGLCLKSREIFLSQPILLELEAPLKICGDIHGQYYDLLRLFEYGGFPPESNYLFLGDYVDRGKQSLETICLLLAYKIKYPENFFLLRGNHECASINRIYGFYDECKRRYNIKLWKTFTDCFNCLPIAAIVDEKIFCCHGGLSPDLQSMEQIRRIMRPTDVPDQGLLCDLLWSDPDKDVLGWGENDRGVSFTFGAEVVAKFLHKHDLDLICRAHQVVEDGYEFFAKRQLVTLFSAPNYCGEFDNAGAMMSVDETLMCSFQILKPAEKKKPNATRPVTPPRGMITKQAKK

Kd^app of SHOC2 from peptide dephosphorylation (25 nM PP1C, 1 µM MRAS(GCP)): ~40 fold weaker than full-length SHOC2
B1: N-terminally truncated SHOC2 (SHOC2-ΔN; residues 91–582) (domain or fragment)
chain: IKELNKCREENSMRLDLSKRSIHILPSSIKELTQLTELYLYSNKLQSLPAEVGCLVNLMTLALSENSLTSLPDSLDNLKKLRMLDLRHNKLREIPSVVYRLDSLTTLYLRFNRITTVEKDIKNLSKLSMLSIRENKIKQLPAEIGELCNLITLDVAHNQLEHLPKEIGNCTQITNLDLQHNELLDLPDTIGNLSSLSRLGLRYNRLSAIPRSLAKCSALEELNLENNNISTLPESLLSSLVKLNSLTLARNCFQLYPVGGPSQFSTIYSLNMEHNRINKIPFGIFSRAKVLSKLNMKDNQLTSLPLDFGTWTSMVELNLATNQLTKIPEDVSGLVSLEVLILSNNLLKKLPHGLGNLRKLRELDLEENKLESLPNEIAYLKDLQKLVLTNNQLTTLPRGIGHLTNLTHLGLGENLLTHLPEEIGTLENLEELYLNDNPNLHSLPFELALCSKLSIMSIENCPLSHLPPQIVAGGPSFIIQFLKMQGPYRAMV
